The results in this text go back to publication PMC10055539 (Research Square, 2023).

Positions count from the first letter of the chain named. Names and notes keep the numbering of the source. Ends that are not written are not given here. * marks the point of attachment. Cbz = O=C(OCc1ccccc1)*

B1: Thermoplasma acidophilum 20S proteasome β subunit (natural protein, T. acidophilum, UniProt P28061 9-211, looked up)
chain: TTTVGITLKDAVIMATERRVTMENFIMHKNGKKLFQIDTYTGMTIAGLVGDAQVLVRYMKAELELYRLQRRVNMPIEAVATLLSNMLNQVKYMPYMVQLLVGGIDTAPHVFSIDAAGGSVEDIYASTGSGSPFVYGVLESQYSEKMTVDEGVDLVIRAISAAKQRDSASGGMIDVAVITRKDGYVQLPTDQIESRIRKLGLIL
notes: proteasome subunit beta of the Thermoplasma acidophilum 20S proteasome; Single subunit of m1, written for the subunit-subunit rows of the structures; also called T20S β subunit; source: part of the purified T20S (purified as described [42], via 8XHis tags on the C-terminus of β subunit)
B2: Thermoplasma acidophilum 20S proteasome α subunit, wild type (natural protein, T. acidophilum)
chain: MQQGQMAYDRAITVFSPDGRLFQVEYAREAVKKGSTALGMKFANGVLLISDKKVRSRLIEQNSIEKIQLIDDYVAAVTSGLVADARVLVDFARISAQQEKVTYGSLVNIENLVKRVADQMQQYTQYGGVRPYGVSLIFAGIDQIGPRLFDCDPAGTINEYKATAIGSGKDAVVSFLEREYKENLPEKEAVTLGIKALKSSLEEGEELKAPEIASITVGNKYRIYDQEEVKKFL
notes: proteasome subunit alpha of the Thermoplasma acidophilum 20S proteasome; Single subunit of m1, written for the subunit-subunit rows of the structures; also called T20S α subunit; source: part of the purified T20S (purified as described [42], via 8XHis tags on the C-terminus of β subunit)
B3: Thermoplasma acidophilum 20S proteasome α subunit with the L81Y mutation (natural protein, T. acidophilum)
chain: B2 chain with L81Y
notes: proteasome subunit alpha of the Thermoplasma acidophilum 20S proteasome, L81Y; Subunit of the T20S-αL81Y proteasome whose cryo-EM structure is solved here; also called T20S-αL81Y α subunit; source: part of the purified T20S-αL81Y (overlapping PCR site-directed mutagenesis; purified via 8XHis tags on the C-terminus of β subunit)
B4: N-acetylated PAN C-terminus peptide, six residues (peptide)
peptide: Ac-LDVLYR
B5: Z-Tyr-Ala (carboxybenzyl-tyrosine-alanine), HbYX-like dipeptide mimetic (peptide)
peptide: Cbz-Tyr-Ala

Data set [1] addresses Thermoplasma acidophilum wild type 20S proteasome (T. acidophilum) (UniProt P25156).
For data set [2], the target named is B2. The data set is described as follows: cryo-EM structure; 0.5 mg/mL WT T20S in 50mM Tris pH 7.4, 150mM NaCl; Titan Krios; homogeneous refinement with D7 symmetry; closed gate. Conditions: both partners purified.
Data set [3] has as its target B3. Briefly: cryo-EM structure; 0.5 mg/mL T20S-αL81Y in 50mM Tris pH 7.4, 150mM NaCl; Titan Krios; homogeneous refinement with D7 symmetry; partially open gate. Conditions: both partners purified.
Data set [4] concerns the molecule itself. The data set is described as above.
Data set [5] concerns the molecule itself. The data set is described as follows: cryo-EM structure; 0.5 mg/mL WT T20S in 50mM Tris pH 7.4, 150mM NaCl; Titan Krios; homogeneous refinement with D7 symmetry; closed gate.
Data set [6] concerns the target Mammalian 20S proteasome isolated from bovine liver (bovine (isolated from bovine liver), UniProt Q2YDE4 1-246; Q3T0Y5 1-234; Q3ZCK9 1-261; Q3ZBG0 1-248; Q5E987 1-241; Q3T0X5 …). Briefly: cell-based or functional assay.
In data set [7] the target is Thermoplasma acidophilum wild type 20S proteasome (T. acidophilum) (UniProt P25156). This is another data set of the same source.

For “N-acetylated PAN C-terminus peptide, three residues (Ac-LYR)”, in data set [1], the LFP hydrolysis (rfu/min) by 7nM WT T20S with N-terminally acetylated peptide (200 μM), relative to DMSO; gate opening turned out to be 2 fold.

Take B1: the binding result in data set [2], in data set [3] and in data set [4] was “binds” each time.

Regarding B2, in data set [5], the binding result is reported as “binds”.

Take B3: the binding result in data set [4] is “binds”.

With B4, the LFP hydrolysis (rfu/min) by 7nM WT T20S with N-terminally acetylated peptide (200 μM), relative to DMSO; gate opening in data set [1] is > 10 fold.

In the case of B5, the “nLPnLD-AMC hydrolysis by mammalian 20S (0.5 nM), dose response of ZYA, normalized to DMSO: activation at saturation” value in data set [6] is ~50 fold. This molecule had an LFP hydrolysis (rfu/min) by 7nM WT T20S with ZYA (2.5mM), normalized to DMSO; gate opening in data set [7] of 13 fold.
